Test results: PMC7319273 (Science (New York, N.y.), 2020)

What was measured:
[1] = biological target: T1, SARS-CoV-2 Spike protein extracellular domain (S-ECD), as used in ELISA and BLI (SARS-CoV-2, Wuhan-Hu-1 (P0DTC2)); test: BLI; details: both partners purified
[2] = biological target: T1, SARS-CoV-2 Spike protein extracellular …; test: cell-based or functional assay

Binder	Kd [1] [nM]	neutralization of authentic SARS-CoV-2 in Vero-E6 cells, EC50 [2] [µg/mL]
2M-10B11 (human monoclonal antibody) (antibody, V domains shown, ELISA group 2B; also called mAb 2M-10B11) VH: EVQLVESGGGLVQPGGSLRLSCAASGFTVSSNYMSWVRQAPGKGLEWVSVIYSGGSTYYADSVKGRFTISRDNSKNTLYLQMNSLRAEDTAVYYCARATWLRGVMDVWGQGTTVTVSS VL: QSALTQPHSVSESPGKTVTISCTGSSGSIASNYVQWYQQRPGSAPTTVIYEDNQRPSGVPDRFSGSIDSSSNSASLTISGLKTEDEADYYCQSYDSSNHWVFGGGTKLTVL	< 2.14	–
0304-3H3 (human monoclonal antibody) (antibody, V domains shown, also called mAb 0304-3H3) VH: EVQLVESGPGLVKPSETLSLTCTASGGSISTYYWSWIRQPPGKGLEWIGYIYYSGSTNYNPSLKSRVTISVDTSKNQFSLKLSSVTAADTAVYYCARDRIAPVGKFFGWYFDLWGRGTLVTVSS VL: not shown	< 2.14	0.04
9A1 (human monoclonal antibody) (antibody, V domains shown, also called mAb 9A1) VH: EVQLLESGGGVVQPGRSLRLSCVVSGFTFNNYGMHWVRQAPGKGLEWVAVISYEGSVKYYGDHVDGRFTISRDPFKNTLYLHMNNLRPDDTAVYYCAKVSAIFWLGQGLSPIDVWGQGTTVTVSS VL: DIVMTQSPATLSASPGERVTLSCRASQNIRNNLAWYQQKPGQAPRLLIHGASTRAAGAPARFSGSGSDTQFTLTVSSLQSEDFAVYYCHQYSKWPVTFGGGTKVDIK	< 2.14	–
1M-1D2 (human monoclonal antibody) (antibody, V domains shown) VH: QVQLVESGGGLVQPGGSLRLSCAASGFTFSSYAMHWVRQAPGKGLEYVSAISGNGGSTYYAKSVKGRFTISRDNSKNTLYLQMGSLRAEDMAVYYCARGAEYYDFWSGYYSAYFDYWGQGTLVTVSS VL: QAVVTQPPSASGTPGQRVTISCSGSSSNIGSNYVYWYQQLPGTAPKLLIYNNNQRPSGVPDRFSGSKSGTSASLAISGLRSEDEADYYCAAWDDSLIYVLFGGGTKLTVL	< 2.14	28
